Target: T1, Aβ1-28 wild type (human)
T1 construct: amyloid-β (Aβ) residues 1-28, cut from the amyloid β precursor protein (APP); numbers count on: the Aβ peptide (position 2 of Aβ is position 673 of APP); Assembles into fibrils; also called Aβ1-28WT; WT; source: synthetic peptide (Fmoc solid-phase synthesis, purified by reverse-phase HPLC, purity >95%)
Assay: neutron diffraction + other: synchrotron X-ray fibre diffraction; peptides or their mixtures dissolved in ddH2O at 10 mg/mL, dried four days at ambient temperature on quartz in a 7 T static magnetic field, re-humidified against 100% D2O for about 14 days; small- and wide-angle patterns
Details: both partners purified

binding result: binds
B1: Aβ1-28A2V (peptide)
peptide: DVEFRHDSGYEVHHQKLVFFAEDVGSNK
notes: amyloid-β (Aβ) residues 1-28 with the naturally occurring A-to-V substitution at position 2 of Aβ (A673V in APP); numbers count on: the Aβ peptide (position 2 of Aβ is position 673 of APP); also called mutated peptide Aβ1-28A2V; source: synthetic peptide (Fmoc solid-phase synthesis, purified by reverse-phase HPLC, purity >95%)

From PMC5511251, “The A2V mutation as a new tool for hindering Aβ aggregation: A neutron and x-ray diffraction study” (Scientific Reports, 2017)
